# Experimental data reported in patent publication US11571459B2, “Methods for treating cancer using PS-targeting antibodies with immuno-oncology agents” (ONCXERNA THERAPEUTICS, INC., priority 2017, dated 2023).
# Tests used:
# β2GPI [1] = molecular target: T1, β2GPI (Homo sapiens, UniProt P02749); test: Antibody binding to β2GPI (domain mapping)
# T1 sequence (P02749 20-345): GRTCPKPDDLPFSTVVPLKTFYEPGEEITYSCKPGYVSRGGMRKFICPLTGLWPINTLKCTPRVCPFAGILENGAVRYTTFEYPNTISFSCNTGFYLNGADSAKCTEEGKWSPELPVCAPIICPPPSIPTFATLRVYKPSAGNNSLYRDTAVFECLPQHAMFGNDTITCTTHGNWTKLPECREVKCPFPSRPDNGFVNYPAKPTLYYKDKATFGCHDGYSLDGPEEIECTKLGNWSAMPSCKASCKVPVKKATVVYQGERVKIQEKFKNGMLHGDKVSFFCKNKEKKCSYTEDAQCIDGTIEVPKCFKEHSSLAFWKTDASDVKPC
# Excerpt: In summary, it was shown that the 3G4 antibody binds to β2GPI at domain II and that the lipid binding region of β2GPI domain V is required for co-binding of 3G4 (and ch3G4) and β2GPI to PS exposed on cells. […] Accordingly, antibody and β2GPI co-bind to PS exposed on the outer surfaces of membranes, such as occurs on activated endothelial cells, tumor vascular endothelial cells and tumor cells, as well as on virally infected cells.
# [2] = Further pharmacokinetic studies in over 120 patients with cancer or viral infections; type: in vivo, human
# hepatitis C virus (HCV) = test: Phase I single intravenous infusion dose escalation study in chronic HCV; type: in vivo, human; conditions: for Observed Cmax: HCV patients
# Protocol: A Phase I, open-label, single center, dose escalation study evaluated a single intravenous infusion of bavituximab in patients chronically infected with HCV (Example III, A).
# Bavituximab was first evaluated in Phase I, open-label, dose escalation studies and Phase Ib, open-label, escalating repeat-dose studies in patients chronically infected with hepatitis C virus (HCV). […] Doses of 0.1, 0.3, 1, 3 and 6 mg/kg were administered in Phase I (30 patients; successive cohorts of 6 patients), and doses of 0.3, 1, 3 and 6 mg/kg were administered in Phase Ib (24 patients; four cohorts of 6 patients).
# [3] = Phase Ib study of bavituximab with gemcitabine, paclitaxel plus carboplatin or docetaxel: PK; type: in vivo, human; conditions: 3 mg/kg weekly with gemcitabine
# [4] = system: previously untreated stage IV pancreatic cancer; test: Phase II (PPHM 1002) gemcitabine with or without bavituximab; type: in vivo, human; conditions: with gemcitabine
# Protocol: The primary objective was to compare the OS of patients among the treatment arms. Secondary objectives included comparing PFS, ORR, DR and safety.
# Gemcitabine (1000 mg/m^2) was given on days 1, 8, and 15 of each 28-day cycle (4 weeks) until disease progression or unacceptable toxicities. A total of 70 patients were enrolled to the study. In general, the patient population had very extensive disease burden, which may have reduced the response in both arms.
# The levels of pre-treatment functional β2GPI ranged from 82.5 to 343.2 μg/ml for all patients. For these 31 patients, the mean level of pre-treatment functional β2GPI (219.2 μg/ml) was consistent with the average reported in the literature.
# [5] = system: previously untreated locally advanced or metastatic non-squamous NSCLC; test: Phase II (PPHM 1001) paclitaxel/carboplatin with or without bavituximab; type: in vivo, human; conditions: bavituximab given with paclitaxel/carboplatin
# PS = conditions: in the presence of serum; cited from earlier work
# [6] = in vivo
# Protocol: (§1) Samples were collected from patients in the 0.1 and 0.3 mg/kg dose cohorts before the study, on days 0, 1, 2, 4, 7, 10, 14, and every 7 days from days 21 to 70. Samples were collected from patients in the 1 and 3 mg/kg dose cohorts before the study, on days 0, 1, 2, 4, 7, 14, 21, 22, 23, 25, and every 7 days from days 28 to 56.
# β2GPI [7] = molecular target: T1, β2GPI; test: Serum β2GPI levels after bavituximab, Phase Ib HCV study; type: in vivo; parameters: from tissue; host or cells: serum of human patients
# Protocol: At the 6 mg/kg dose, β2GPI levels fell by 40% relative to the pretreatment levels, to approximately the lower limit of the normal range.
# [8] = system: previously-treated Stage IIIb/IV non-squamous NSCLC; test: Phase III trial of bavituximab plus docetaxel in NSCLC; conditions: functional β2GPI ≥200 μg/mL
# Excerpt: This global, double-blind Phase III trial was initiated in 2012. Selection criteria were for patients with Stage IIIb/IV non-squamous NSCLC who progressed on platinum-doublet chemotherapy (should have progressed on appropriate targeted therapy if known EGFR or ALK mutation), with ECOG PS 0-1 and prior immunotherapy allowed (ECOG is the performance status scale defined by the Eastern Cooperative Oncology Group). […] The primary endpoint was overall survival (OS) and secondary endpoints included objective response rate (Independent Central Review, ICR), progression-free survival (ICR), safety, PK, Quality of Life (LCSS) and exploratory biomarkers, including immune correlates.
# OS was analyzed by VeriStrat subgroups using Kaplan-Meier statistical methods.
# A single cutoff method was first used to assess the patient β2GPI data.
# The initial analyses described above prompted further, extensive analyses of the data in 592 evaluable patients. These analyses used a two cutoff method (Klein & Moeschberger, 2003).
# Archival tissue obtained at the time of diagnosis was requested, but not required, in the Phase III trial of Example X. Formalin-fixed paraffin-embedded (FFPE) slides were stained with antibodies for a panel of lymphoid (or tumor) cell markers, as described in Feng et al., 2015: CD3+, CD8+, FoxP3+, PD-L1+, CD163+ and CK+ (cytokeratin, an epithelial carcinoma marker) using a mutliplex (6-plex) quantitative immunohistochemistry (IHC) assay (OPAL®, PerkinElmer, Waltham, Mass., USA) and using DAPI. The PD-L1 antibody used was the rabbit anti-PD-L1 antibody termed E1L3N® XP® (Cell Signaling Technology, (CST), Danvers, Mass., Catalogue #13684; Mahoney et al., 2015). Baseline PD-L1 expression was retrospectively scored on tumor cells (TC, i.e., CK+) and PD-L1 expressing tumor cells were classified according to their percentage within the total number of tumor cells using established assays and classifications (Fehrenbacher et al., 2016), as follows: TC3≥50%; TC2≥5% and ≤50%; TC1≥1% and <5%; and TC0<1%. Cox regression models for PD-L1 IHC subgroup populations were used for correlation with OS.
# Kaplan-Meier statistical methods and Cox proportional hazard models were utilized to evaluate and contrast the correlation of peripheral (and intratumoral) IFNγ levels with OS based on a data cut from the Phase III trial (Example X) dated Feb.
# HCV (genotype 1) = test: Phase II study of bavituximab with ribavirin in chronic HCV (genotype 1); conditions: for patients with early virological response (EVR): Week 12
# [9] = Phase I dose escalation study of bavituximab monotherapy in refractory advanced solid tumors: PK, safety; conditions: for AUCinf / Cmax / t1/2 / CL: Mean (CV %)
# Protocol: as §1
# [10] = functional β2GPI less than 200 μg/mL
substance,measurement,setting,value
bavituximab,β2GPI domain bound,β2GPI [1],bind to domain II of β2GPI
same,PK linearity,[2]; doses 0.1 to 6 mg/kg,linear single-dose and multiple-dose PK characteristics
same,time by which distribution phase is essentially complete,[2]; where observed,≤ 6 h
same,Observed Cmax,hepatitis C virus (HCV); 0.1 mg/kg single infusion,2500 ng/mL
same,Observed Cmax,hepatitis C virus (HCV); 0.3 mg/kg single infusion,5700 ng/mL
same,Observed Cmax,hepatitis C virus (HCV); 1 mg/kg single infusion,24300 ng/mL
same,Observed Cmax,hepatitis C virus (HCV); 3 mg/kg single infusion,75800 ng/mL
same,Observed Cmax,hepatitis C virus (HCV); 6 mg/kg single infusion,135000 ng/mL
same,tolerability,"hepatitis C virus (HCV); Phase I and Phase Ib, 0.1 to 6 mg/kg",all dose levels of bavituximab were well tolerated
same,viral load,"hepatitis C virus (HCV); Phase I, all dose levels",transient reductions in viral load
same,accumulation (Cmax and AUC),[3],no accumulation of bavituximab following multiple-dose administration
same,mOS,[4]; [10],5.3 months
same,mOS,[4]; functional β2GPI ≥200 μg/mL,7.4 months
same,mOS,[5]; [10],14.2 months
same,mOS,[5]; functional β2GPI ≥200 μg/mL,17.0 months
same,"binding to anionic phospholipids (PS, PI, PA, PG, CL)",PS,bind strongly to anionic phospholipids
same,accumulation following multiple-dose administration,[6],did not exhibit appreciable accumulation or time-dependent PK differences
same,tolerability,[6],well tolerated at doses ranging up to 3 mg/kg weekly
same,change of β2GPI levels,β2GPI [7]; 1 mg/kg,virtually unchanged
same,time for β2GPI to return to pre-treatment level,β2GPI [7]; 3 mg/kg,≤ 24 h
same,time for β2GPI to recover to baseline,β2GPI [7]; 6 mg/kg,3 days
same,mOS,[8]; with subsequent IO,has yet to be reached
same,mOS,[8]; without subsequent IO,10.5 months
same,patients with early virological response (EVR),HCV (genotype 1); 0.3 mg/kg weekly with ribavirin,18%
same,patients with early virological response (EVR),HCV (genotype 1); 3 mg/kg weekly with ribavirin,9%
same,safety profile / patients reporting AEs,HCV (genotype 1); all with ribavirin,more favorable safety profile
same,viral reduction,"HCV (genotype 1); plus ribavirin, 12 weeks",gradual viral reduction over 12 weeks was seen in some patients
same,PK linearity,[9]; 0.1 to 3 mg/kg,linear single-dose (day 0) and multiple-dose (days 21 or 42) PK characteristics
same,maximum tolerated dose,[9]; 0.1 to 3 mg/kg weekly,No maximum tolerated dose was reached
same,AUCinf,"[9]; Day 0, 0.1 mg/kg, N=8",113 (50.1) d μg/mL
same,Cmax,"[9]; Day 0, 0.1 mg/kg, N=8",2.11 (27.3) μg/mL
same,t1/2,"[9]; Day 0, 0.1 mg/kg, N=8",43.9 (48.5) h
same,AUCinf,"[9]; Day 0, 0.3 mg/kg, N=6",241 (39.8) d μg/mL
same,Cmax,"[9]; Day 0, 0.3 mg/kg, N=6",5.13 (42.4) μg/mL
same,t1/2,"[9]; Day 0, 0.3 mg/kg, N=6",39.8 (34.1) h
same,AUCinf,"[9]; Day 0, 1.0 mg/kg, N=6",966 (30.0) d μg/mL
same,Cmax,"[9]; Day 0, 1.0 mg/kg, N=6",16.6 (30.9) μg/mL
same,t1/2,"[9]; Day 0, 1.0 mg/kg, N=6",40.3 (20.2) h
same,AUCinf,"[9]; Day 0, 3.0 mg/kg, N=6","3,017 (50.3) d μg/mL"
same,Cmax,"[9]; Day 0, 3.0 mg/kg, N=6",56.4 µg/mL
same,t1/2,"[9]; Day 0, 3.0 mg/kg, N=6",37.2 (34.5) h
same,AUCinf,"[9]; Day 21, 1.0 mg/kg weekly, N=6","1,053 (38.0) d μg/mL"
same,CL,"[9]; Day 21, 1.0 mg/kg weekly, N=6",1.12 (52.1) mL/kg/d
same,Cmax,"[9]; Day 21, 1.0 mg/kg weekly, N=6",18.7 (31.8) μg/mL
same,t1/2,"[9]; Day 21, 1.0 mg/kg weekly, N=6",46.8 (38.4) h
same,AUCinf,"[9]; Day 21, 3.0 mg/kg weekly, N=4","2,672 (63.4) d μg/mL"
same,CL,"[9]; Day 21, 3.0 mg/kg weekly, N=4",1.51 (61.4) mL/kg/d
same,Cmax,"[9]; Day 21, 3.0 mg/kg weekly, N=4",59.6 (27.6) μg/mL
same,t1/2,"[9]; Day 21, 3.0 mg/kg weekly, N=4",46.0 (44.4) h
same,time concentration remained above 2 μg/mL,[9]; dose of 1 mg/kg,6 days
same,time concentration remained above 2 μg/mL,[9]; dose of 3 mg/kg,7 days
